Measured values taken from US20210087556.

What was measured:
[1] = molecular target: GST-fusion SMAD3 protein (Sigma-Aldrich Co. LLC.) (UniProt P84022)
[2] = molecular target: FLAG-tag-labeled human SMAD3, expressed in LL29 cells from expression vector pEZ-M11 Flag-hSmad3 (UniProt P84022)
Sequence of FLAG-tag-labeled human SMAD3, expressed in LL29 cells from expression vector pEZ-M11 Flag-hSmad3 (P84022 whole entry, looked up): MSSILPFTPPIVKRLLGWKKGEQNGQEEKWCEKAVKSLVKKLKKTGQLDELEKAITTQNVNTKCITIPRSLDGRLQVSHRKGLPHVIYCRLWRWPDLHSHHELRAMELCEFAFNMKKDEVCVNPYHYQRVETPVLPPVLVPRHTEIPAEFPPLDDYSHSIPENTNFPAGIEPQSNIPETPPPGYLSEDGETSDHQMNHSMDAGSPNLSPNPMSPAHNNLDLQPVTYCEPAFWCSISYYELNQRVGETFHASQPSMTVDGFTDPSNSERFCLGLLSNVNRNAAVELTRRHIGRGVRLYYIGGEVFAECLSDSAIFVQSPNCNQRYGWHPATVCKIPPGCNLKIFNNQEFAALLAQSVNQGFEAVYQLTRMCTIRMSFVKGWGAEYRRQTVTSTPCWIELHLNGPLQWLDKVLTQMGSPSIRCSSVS

Sequence of His-fusion NEK6 protein (Eurofins Scientific SE) (chain, as listed by the source): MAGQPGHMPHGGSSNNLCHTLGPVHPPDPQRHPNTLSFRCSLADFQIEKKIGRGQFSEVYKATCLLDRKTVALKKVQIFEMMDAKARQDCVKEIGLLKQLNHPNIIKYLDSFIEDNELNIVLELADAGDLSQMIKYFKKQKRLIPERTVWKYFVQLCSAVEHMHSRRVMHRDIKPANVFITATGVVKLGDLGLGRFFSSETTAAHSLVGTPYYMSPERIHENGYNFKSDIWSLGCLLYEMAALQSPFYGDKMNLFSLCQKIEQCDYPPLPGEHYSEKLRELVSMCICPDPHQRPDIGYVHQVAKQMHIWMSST
Sequence of GST-fusion SMAD3 protein (Sigma-Aldrich Co. LLC.) (P84022 whole entry, looked up, the tested form may be a part): as the sequence (P84022 whole entry, looked up) above

Substance	amount of phosphorylated SMAD3 (Western blot after in vitro kinase reaction with purified proteins) [1]	amount of phosphorylated SMAD3 protein (Western blot of anti-FLAG coimmunoprecipitate) [2]
His-fusion NEK6 protein (Eurofins Scientific SE)	By using NEK6 protein, the amount of phosphorylated SMAD3 was elevated.	
human NEK6 protein (NIMA-related serine/threonine kinase 6), expressed in LL29 cells from expression vector pEZ-M02 Nek6		transfection of a human NEK6 expression vector caused the amount of phosphorylated SMAD3 protein to be elevated
